Measured values reported in the DeepSol protein solubility set.

Experiment: soluble on expression in E. coli; label from the status in PepcDB or PDB records

Soluble on expression in E. coli, soluble:
AEPQPPSGGLTDEAALSCCSDADPSTKDFLLQETMLRVKDPKKSLDFYTRVLGMTLIQKCDFPIMKFSLYFLAYEDKNDIPKEKDEKIAWALSRKATLELTHNWGTEDDETQSYHNGNSDPRGFGHIGIAVPDVYSACKRFEELGVKFVKKPDDGKMKGLAFIQDPDGYWIQILNPNKMATLM

Soluble on expression in E. coli, not soluble:
KDINLYKGSIPSGKQQGVDAILISNPNLINILEQAKQKNTAQGSESTTNKIIGYTTTANVNVDNQNIFSVSKLNNEQFQRKIIVNATEETLDQSQTLQSNESIVLPMPGKYKSTDKNKVMITQGPNLIGIHANEKENIETKKFVNW
MTEHTSSYYAASANKYAPFDTLNESITCDVCVVGGGYTGLSSALHLAEAGFDVVVLEASRIGFGASGRNGGQLVNSYSRDIDVIEKSYGMDTARMLGSMMFEGGEIIRERIKRYQIDCDYRPGGLFVAMNDKQLATLEEQKENWVRYGNKQLELLDVNAIRREVASDRYTGALLDHSGGHIHPLNLAIGEADAIRLNGGRVYELSAVTQIQHTTPAVVRTANGQVTAKYVIVAGNAYLGDKVEPELAKRSMPCGTQVITTERLSEDLARSLIPKNYCVEDCNYLLDYYRLTADNRLLYGGGVVYGARNPDDVERLVVPKLLKTFPQLKGVKIDYRWTGNFLLTLSHMPQFGRLDTNIYYMQGYSGHGVTCTHLAGRLIAELLRGDAERFDAFANLPHYPFPGGRTLRVPFTAMGAAYYSLRDRLGV
MIIRNVRILICMNTIYYEAHNNLYLNLTNRCSADCIFCIRNFADGVYGYNLRLSKEPSTEEIIEALEGLDLSKYREIVFTGLGEPTLRLDVVLAVTRWLKNQGLRVRLDTNGHAALINPKLDVIAELKKAGLDSVSVSLNAESEEKYNKLCRPVHKNAYRAMLDFVRGAKEAGISTRVTVVKIPEIDVEKCRKVSEELGSDFHIRLLSEAASQEIRE
MNQLNGQQLNDIILVLQNFTHSTLKKDLISLNAFKKAELTCGILRIELSMPFVWQTGFEALQAEVEQQLKQITGASGVKWVLNYQIATLKRANNHPAVNGVKNIIAVTSGKGGVGKSTTSINLALALQAQGAKVGILDADIYGPSIPHMLGAQDQRPTSPDNRHITPIEAYGIQSNSIGYLMAEDNATIWRGPMASSALSQLLNETWWTDLDYLVIDMPPGTGDIQLTLSQQIPVTGAVVVTTPQDIALLDAIKGIAMFQKVAVPVLGVIENMSVHICQNCGHQEAIFGTGGASKVAEKYNTQLLGQLPLHIRLRQDLDAGTPTVVADPTHEISQAYLALAAKVAAELYWQGTVIPSEIMIREVK
MGSDKIHHHHHHMSTKHSKAAAEFLKNKKQAAWHDETLWLVRAKRDRLSKEVPEWEELRNMACATKLYSNSHLDELLVEFENNARANGAHVYWAKDADEYCNIVYNILNQHGVKHFIKSKSMLAEECELNPFLESKGIEVVESDLGERILQLMHLKPSHIVLPAIHIKREQVGELFEREMGTEKGNFDPTYLTHAARKNLRQKFIHAEAAMTGANFAVASTGEIVVCTNEGNADMGTSQPKLQIAAFGMEKIVPDRESLGVFTRLLARSATGQPITTYTSHYRKPREGGELHIIIVDNGRSKILADPKHIKTLNCIRCGACMNTCPVYRRSGGYSYTYFIPGPIGINLGMLKAPLHYYDNVSACSLCYSCSFVCPAKVDLAEQIYLWRQDLDKLGKADRMKKVMSGGMEFMMKRPSIFNMALKWAPLVNGVPRFLIYNGLNDWGKGREMPKFAKESFNEMWKKGKVK
MTGSACFFSTDFLFGRYGPTVCIIPSENIPDKANTMIRPDFQEYLPSYYFSSVNPHTVYPKLQCRLKAETCIIGGGLSGLCTALPLAEHGHEAVVLEAARIGFGASGRSGGQVISDYACGMGEIEKQVGLEQAQWFWQQSLQAVELVDERVRKHAIDCDWQRGYATVAVRPQHWEELQQWHEHAQRHYGASHYQLWDKAELKQQLDSDMYQGAQFDPLSGHLHPLNYTLGVASAAAEAGAQIFEQSPMTRIEPYQNGWLVYTPEGSVECKNVVYAVNTYVGLNPIFRPLERKAIAVSTFIIATEPLGARTKGLIRNNMAVCDNRHILDYYRLSADGRLLFGGKDNEFIDNPARMTELVRQDMLKVFPQLADVRIEYSWGGECDITANLVPHFGRLTSNVFYTQGYSGHGMAITGIAGLAVAEAILGDECRLKPFEQLCQPNIILQPFLRKLGSFLGSKYYQWKDSRLEHHHHHH
MGHHHHHHSHMKRDELMELIFLGTSAGVPTRTRNVTAILLNLQHPTQSGLWLFDCGEGTQHQLLHTAFNPGKLDKIFISHLHGDHLFGLPGLLCSRSMSGIIQPLTIYGPQGIREFVETALRISGSWTDYPLEIVEIGAGEILDDGLRKVTAYPLEHPLECYGYRIEEHDKPGALNAQALKAAGVPPGPLFQELKAGKTITLEDGRQINGADYLAAPVPGKALAIFGDTGPCDAALDLAKGVDVMVHEATLDITMEAKANSRGHSSTRQAATLAREAGVGKLIITHVSSRYDDKGCQHLLRECRSIFPATELANDFTVFNV
MQPSIAPSTPIPRQETVELVYRIFGDVLVPLEQVRERWFRNLNKENFSKALACGRIALPVTTLDDSHKAMQFVALDHLAAYVDQRANQAGSARRAQPGADSIAS
MRTFDLTAALGDRANQPEISRLLVAQLMTSNNEDTRKLRRAQEREQTQELNELAHRLAGMASLIHAHAVERACHQLEIACGESSVRKLADAVDDLVTALGELQCELHDWMTMTAPQGTAKS
QLHELANTFGQDLQRRYGEKVHKLTLHGGFSCPNRDGTIGKGGCTFCNVASFADEQEQFKSIHDQLTDRAGEVQRAKKYLAYFQAYTSTFAEVQVLKNMYEEALKAANIVGLCVGTRPDCVPDAVLDLLKGYVDDGYEVWLELGLQTANDKTLKRINRGHDFACYDAITRKARSLGIKVCTHLIIGLPGDTRDDNRQTLDKVLATGTDGIKLHPLHIVEGSTLAKAWRAGKLDAPEMDEYVDIACELIRLTPPEVVYHRVSATARQPTLLSPLWCEPRWLGLTNVGMALNNSGPQGS
SNIMDFNVKKLAADAGTFLSRAVQFTEEKLGQAEKTELDAHLENLLSKAECTKIWTEKIMKQTEVLLQPNPNARIEEFVYEKLDRKAPSRINNPELLGQYMIDAGTEFGPGTAYGNALIKCGETQKRIGTADRELIQTSALNFLTPLRNFIEGDYKTIAKERKLLQNKRLDLDAAKTRLKKAKAAETRNSSEQELRITQSEFDRQAEITRLLLEGISSTHAHHLRCLNDFVEAQMTYYAQCYQYMLDLQKQLGSFPSNYLSNNNQTSVTPVPSVLPNAIGSSAMASTSGLVITSPSNLSDLKECSGSRKARVLYDYDAANSTELSLLADEVITVFSVVGMDSDWLMGERGNQKGKVPITYLELLN
MNASLSSDIAPYIPTLIQQLPIIEEIKTHLPQVLPDYSADEIHATAIASVGMYLADIDYGIRQAIAPEVTPLELRQKLSAYKIELFKRIYNIQFLQPPSTPIGGLELMQQAFKTYKRLLTTLAKAYNLRLPKGILLEHHHHHH
MKMFQKMCASTVIITTLLGIGGTVNSVHADSIEQQSKLGIDQETDKQIIVKFKADLKFPYEDGIEKQIQSQTNDKVLEDLLVEYPDVTFTRLFTSVSPEEIEDLEVKAPNNVSTSLLNYYILQTQNGEQKEELVDRLKKSCLIEDVYMKKQEKITPPEVQPSSVSLSPNNNPRFKQQGYLEAAPYGINAPFAWEVQGGKGSGITFVDMEYGWLLNHEDLVHQNIELMSGINIDQHVGHGTSVLGIVSSEDNEVGNIGIAPKAKAKVISQIRDNGQYNTADAILSAVNQLEAGDVLLLEAQASFDGYGDKYLPVEVQPDIFDAIRAGTDKGVVIIEAGANGWNDLDQFKDRNGKQILNRNSKDFKDSGAIMVGAGSSSFPHGRMWFSNYGSRIDVYGWGENVDTTTAEQSRSAVNLYTSSFSGTSSASPIIAGAATLVQSIAKENLGQPYRPSELRAILSNENTGTKSKDPYADQIGVLPDLKSILVNLGYGQRKPNGGNELQVTENEPNNERIQANKVNFHTPMKGTLHNSDRVDVFTFQMDSPENITISLLNEQNIGMTWVLHHESDLNNYVAYGENEGNVVKGTYHAKPGKYYLYVYKYENKDGSYVLNIK
MSLPNCLQCQSEYVYEDGLLLICPMCAFEWTPGEEATEEEGLVVLDSNGVRLSDGDTITVVKDLKVKGAPKDLKQGTRVKNIRLVEGDHNIDCKIDGFGAMKLKSEFVKKI
MGSDKIHHHHHHMKFPRIGLPKEKVIELINEKTKKDLTFSSGKILGSMCTMPHDLAIEVYTKYIDRNLGDPGLHPGTRKIEEEVIEMISDLLHLEKGHGHIVSGGTEANILAVRAFRNLSDVEKPELILPKSAHFSFIKAGEMLGVKLVWAELNPDYTVDVRDVEAKISDNTIGIVGIAGTTGLGVVDDIPALSDLARDYGIPLHVDAAFGGFVIPFAKELGYELPDFDFKLKGVQSITIDPHKMGMAPIPAGGIVFRRKKYLKAISVLAPYLAGGKVWQATITGTRPGASVIAVWALIKHLGFEGYMRIVERAMKLSRWFAEEIKKINNAWLVREPMLNIVSFQTKNLKKVERELKSRGWGISAHRGYIRIVFMPHVTREMIEEFLKDLKEVLS
MSEVKVITGTSAAAEAAKLADVDVIAAYPITPQTTCVEKLADFVANGELNAEYIKVESEHSAMSASIAASATGARTFTATSSQGLALMHEVLFAAAGMRVPVVMMNANRALSAPINIWNDQQDSLSQRDTGWIQLYAEDNQEVLDLVIQAFKIAEDEKVLLPVMVNLDGFILTHTVEPVTLPKQESVLDFIGSYEPKHAYLDPKKPMTQGSLGDPNYYMETRYAIETAMRNAEKVIADVHDAFAEKFNRAYGNGLIESYNLEKAENVIVAMGSICGTIKDMIDLKKKEGVEIGLLKIRCYRPLPVEMIKDALKNAKNVAILDKSISLGMNKGAIYADVASFLKDKKTVNYIVGLGGRDITPEDILGIYVDVETSEDGKTNWVGLKEE
MGSDKIHHHHHHWIAFAGNMNTTIDNESDELKAIDYKDLEVKEKLGEGASGEVYRAMYGGSDVALKLFRGAATSDGLPEDEIKVMQRLGPDENSVSILGSVVGAPEGQLAALLPLVPPSFTILGNPPTFDSCTRDTYPKDKTFSLRTAIEILEAIARVCAHLHSRGLSHGDLYAHNILVQIGVDGEPTRTKLSDYGAASFSSVLKPHQVALLERIEVRAFGALAEELMDRLEEADAEGVAHRLSSVIVKSMRADVASRPSFSEIHQEMVAFLKEV
MGHHHHHHSHMHSLATAAPVPTTLAQVDREKIYQWINELSSPETRENALLELSKKRESVPDLAPMLWHSFGTIAALLQEIVNIYPSINPPTLTAHQSNRVCNALALLQCVASHPETRSAFLAAHIPLFLYPFLHTVSKTRPFEYLRLTSLGVTGALVKTDEQEVINFLLTTEIIPLCLRIMESGSELSKTVATFILQKILLDDTGLAYICQTYERFSHVAMILGKMVLQLSKEPSARLLKHVVRCYLRLSDNPRFSDLTFCWSSFQRK
MTKKDEVKELEVKNNIPEAEKKPFNKFGKQEKHTVEDVEYTFQFPGTRAAQAILDNSKGPSNTFSDVAYHSQLMDSVIVTPKLNWDYWDEHEGYREVMALADNFLGRMLN
LDRHLQPLLLELATLTRAENSGVAPKVSDERKELDRLLAEQEGNRRALTAANVAVDDMELEIRRVQEDERKLRRREAEGKRQLAAEVDEEKRRDIKHDIYAAKSRIADLMSELQEAHNEIHALRNNRDLNQQRVSDTEARIDKARAAVDALGEDTTAADRHERIETLRLELPSDVVAQFDEQRDENEVGVASFNNRSCGGCFIILPPADISIIRRAPMNVLPQCPDCGSYLVRQG
